Values of other authors in patent publication US4347323A, “Glycerol kinase from Streptomyces canus” (Toyo Jozo Kabushiki Kaisha, priority 1979, dated 1982).

Settings: known glycerol kinases

B1: E.Co-GK: known glycerol kinase of Escherichia coli (protein, UniProt P0A6F3 2-502, looked up)
Glycerol kinase: TEKKYIVALDQGTTSSRAVVMDHDANIISVSQREFEQIYPKPGWVEHDPMEIWATQSSTLVEVLAKADISSDQIAAIGITNQRETTIVWEKETGKPIYNAIVWQCRRTAEICEHLKRDGLEDYIRSNTGLVIDPYFSGTKVKWILDHVEGSRERARRGELLFGTVDTWLIWKMTQGRVHVTDYTNASRTMLFNIHTLDWDDKMLEVLDIPREMLPEVRRSSEVYGQTNIGGKGGTRIPISGIAGDQQAALFGQLCVKEGMAKNTYGTGCFMLMNTGEKAVKSENGLLTTIACGPTGEVNYALEGAVFMAGASIQWLRDEMKLINDAYDSEYFATKVQNTNGVYVVPAFTGLGAPYWDPYARGAIFGLTRGVNANHIIRATLESIAYQTRDVLEAMQADSGIRLHALRVDGGAVANNFLMQFQSDILGTRVERPEVREVTALGAAYLAGLAVGFWQNLDELQEKAVIEREFRPGIETTERNYRYAGWKKAVKRAMAWEEHDE
pH stability: 6.5-7 pH
